Laboratory results taken from the DeepSol protein solubility set.

experiment: soluble on expression in E. coli; label from the status in PepcDB or PDB records

Sequence | soluble on expression in E. coli
MKHQHQHQHQHQHQQPLNEEFRPEMLQGKKVIVTGASKGIGREMAYHLAKMGAHVVVTARSKETLQKVVSHCLELGAASAHYIAGTMEDMTFAEQFVAQAGKLMGGLDMLILNHITNTSLNLFHDDIHHVRKSMEVNFLSYVVLTVAALPMLKQSNGSIVVVSSLAGKVAYPMVAAYSASKFALDGFFSSIRKEYSVSRVNVSITLCVLGLIDTETAMKAVSGIVHMQAAPKEECALEIIKGGALRQEEVYYDSSLWTTLLIRNPSRKILEFLYSTSYNMDRFINK | soluble
GPGSMLTGALRLSSHRVQDFIVTTCDKAFMLSSRTRLDKKTVETILLAGYSRIPVYLNDNRRHILGTLIVQSLVILCFTNPNKPPRAGEYPLLETLRLPASTTLYNSYLAFQKNSSNMAVVYDNCGVMVGLWTLTDLLCTLYNTSPAHEGSNTHRQELMVTLLESMKAMNAARRKAQGNVNSAIESEEFFVGGRKK | not soluble
SSNFSSERIRYAKWFLEHGFNIIPIDPESKKPVLKEWQKYSHEMPSDEEKQRFLKMIEEGYNYAIPGGQKGLVILDFESKEKLKAWIGESALEELCRKTLCTNTVHGGIHIYVLSNDIPPHKINPLFEENGKGIIDLQSYNSYVLGLGSCVNHLHCTTDKCPWKEQNYTTCYTLYNELKEISKVDLKSLLRFLAEKGKRLGITLSKTAKEWLEGKKEEEDTVVEFEELRKELVKRDSGKPVEKIKEEICTKSPPKLIKEIICENKTYADVNIDRSRGDWHVILYLMKHGVTDPDKILELLPRDSKAKENEKWNTQKYFVITLSKAWSVVKKYLEA | soluble
MGSDKIHHHHHHMSALLEVKGLNVSFRQDGRISQAVRGVSFTVNRGETVALVGESGSGKSVSALSTVSLLGDSAIVEGSVTYDGQEMIGASEQRLMDVRGNDISFIFQEPMTSLNPLHTIRKQMAESLALHQGLVGAAALERILELLVKVGIRDPETRLDAYPHQLSGGQRQRVMIAMALANKPDILIADEPTTALDVTIQAQILELLADLQREENMGMLFITHDLGIVRRIADRVCVMKAGEIVESGSTEEIFANPRHPYTRKLLAAEPKGRPDPVPAGAEEVARTDHLRVWFPIQRGFLRRTVGHVKAVNDASISVRAGETLGIVGESGSGKTTLALAIMRLIGSEGGITFRGEDVRSWSTRELRRLRKDMQIVFQDPFGSLSPRMTCAQIISEGLAIHKVDPHRAPRELVAEVMQEVGLDPATMDRYPHEFSGGQRQRIAIARAMVLRPRLLVLDEPTSALDMTVQVQIVALLRDLQRKYGLAYLFISHDLKVVRAMSHKVIVMRQGDVIEMGETEALFTNAQTDYTRSLIAAAG | not soluble
MEGNQAGSSLDSLIASFNKRIGELQELVIARNMYPASTIPDLSAIDTALSSMELQVQSIKDRLREETEAIPKAKKLIEASLKQQGKLQKMSIYAPSHFPDKATMLNSDLNRCLLQENAKQYEQHSTLSSLKFDEEAAVLPKEKKGRGSPPLWYITVEELNSLSSYMRGRLTLEKVNAAINDMASYAEANAHLIAASKQKLAENLWEKALKLRDIVTEQAVKGKHFFLETDMKGPSLKLDNTGKAILTVLRHLGRISETRIGQNRVIILMKPH | soluble
MGSDKIHHHHHHMSDTDKQAFLTSVSSKEQVKKVIEPRKVTKCPHCQSTHFVKNGKDCGNQRFLCRDCKKSFVEQTGTILYNTQKDIEVWEKYIHCMIEKYPLRKCAEICKINLATAFTWRHKILDALQNMMNEVELDGIVQADETYSTISYKGHHKNFNLPRPAHKRGTRATKRGISKEQVCVPCGINLDGKSVARISNLGKPSLKNIN | not soluble
MPCQKKSNPTELHISTGREIVQRNFVFRNTTGKDFLLKLHATNEAVTFPTEVFRFPPLAHRAIQFRVNSSKLSQWDKMNLLIKGYVLPIYAKSLKQFIDQKKTAGTKEQEAFSLSVKFTDQFSAPQTVINLPGYATCIESTDYPVDVEELDTTTAVNIERDVSTAVPIGSMMGFVEEYKRRQLNKGCWFSNYICGTEKQPEKQSMRSSRRSSRSSNHSAKSSKACRIQANKKNKSDVNVCLEATPCGGSTIQA | not soluble
MGSDKIHHHHHHMGVFLDKSIKEVVDELNGRYFLPDIQREYVWLQNADGKKIEQLFDSILRGYPIGFFLFWKLPKEDIAKSDEQDSDKLNFQLYQFITNYDERKPHNEKIRIEQIKRDDLYIVLDGQQRLTSLYIGLKGTRTLKKKNARYDNPNAYEEKRLYLNLKHQPNMDNPEDNYEFEFHAQKPENDKKHWWFKVGDILESESHVWNYADEHGLKGNELKLLGDLHRAFHTKQLVSFFEETEKNLNKVLNIFIRVNSGGVKLSYSDLLMSILTASFSSDIREKMNELVDALKDKGFSNMG | not soluble
MQLEIKGKTHNVKFGTRFVAEMDKNHIAERQGFKFGAGLQSSVPFLIDHSVVTLAEVIYTGTITEPPRPSLNDIYDYIDEVEDIEKLFDDVLDELRQSNASKLFMAQVEKDLAEAKA | not soluble
MASCVLTHSPPPPMTAKSPPIPAPSPEQIGLRIRALRKRQKRTLAWLSAQCGLDKGFLSRLERGEKSASVGTLHTVAGALGSSLSALLGEADPQTEIQIVRAADRHRMTTAPGPGEHIYEAITLGSSHSGLSVMVVEVGTHGAHTEAHHGGDELIFVLDGRIRVHFGGHTVLLERDDSVRFPGYLPHSLSAEGRKLARALVVIASG | not soluble
MSPRRSAAEAQATRGRILGRAAEIASEEGLDGITIGRLAEELEMSKSGVHKHFGTKETLQISTLDKAFVDFWHRVVEPALAEPPGLRRLRAVCANSVGYLEEPLLPGGCLLTAALSEYDGRPGRVRDAVAEVWSRWREQLRADLTAAVDKGELPAGFDVEQALFEIVAAGLALNAAMQLQHDRTAADRARRAIERALAQS | soluble
GMNGFSQLEGLRGHPSVVRVIGHRGARGVMPENTLEGFAFTLAAGVRALEFDVVMTADGVPVVTHNHHLANAMTRDGQGHWLTGAERQVAEMTYAEIRALDVGGLDGRTVYGRRFPDQAFLTGIHVPRLGELLDLCAGYGDQAPYLLLELKSDPALMHDHAARAEMVAAVLADVRRYRMEPRTVMHSFDWALLGECRRQAPDLPTSYLSQLPENADDPGEDSAKPVGPDYDRMTESLPQAVASAGGQLWCPYFLDVTPELVAEAHDLGLIVLTWTVNEPEDIRRMATTGVDGIVTDYPGRTQRILIDMGLSWT | soluble
MSLNRIILIGNGFDLAHGLPTRYEDFINWYWEKRVDSFIGNLTPISEDCLCSIKITSDNYNRCWNVFAFCLPKFFNKPSGKEIIDSIANDSKSFELSLSPFFFNICTCIETKGWVDIEKEYYDLLRNAIINPDNCNYTISEINKQLHYIQGLLAQYLSSITTDNIKCNKEIQRQIYGNIRKDDVSISQLQVYYDYVDHLIQQDNVYQQLLCRYGYESSDRHFMAEDIKQLRKQFVGSSEIEEIYLKDLIFPENIVLLNFNYTEVADKYGCLKVASTNHIHGDLNNPDSIIFGYGDELDEDYRDFLKQSDNECLRNIKSIKYLESGKYRNLLQFIESAPYQVYIMGHSCGNSDRTLLNTLFEHKNCVSIKPYYYQKDDGSDNYLEIAQNICRNFTDMKLMRDRVVNKMFCEPLPQYIKEGHHHHHH | soluble
MSGARRDNRRSNGRDDSSRVAKAENDRKPGRENRGGDEKRGNSNNAARSGGGGGGNRGGAERGIAPAQQPYDNNGGHRSGGGGGRSGGGGTSFNGAAFTESQLMDEVPKKKFTGRCRLFVGNLPNEVKETELKELFSPHGDIAECYLSGKGFAFLRLDTRAHAESAKEAIDGRIIHGRQVRVRFAVHGAAIRVKELSPTVSNEMLYHAFSHFGDVERAVHIVDEKGRPTGEGIVEFERKPNCNEAMAAIRDKVFLLTASPKPLICEVLEPRDEDDGLAERMIPRTPGLSKERELGPRFPTPNSFEYVYGMKWKELYVVEQKRRAQLDEELRESRRRLESDMELAYQDYQAQMLREDLQRRQQELERLEAARRERMRGLGGPPPGMPGGVPPQAQPFNPHGGSMFGGPGGPGGPPPFGQPFQQAPQGMFNVPTGPPPLMGGGGDPRGPPGGMGGPPGHGGMGGPPGHGGQGGPPGHGGMGGPPPGQGGPGVRETWRSWRNASKSHGRSNMIEGVQRLLQIFKSDNGPPGGMPGRDYPPQQGPGGMFGSYGDGGYPPEKKQRR | not soluble
